Where two headings read alike, the source gives them in different places. Each block holds one compound with its values, some of them ahead of it.
Experiments:
[1] = test system: primary tumors and metastases; assay: Comparison of [^68Ga]Ga-FAPI-RGD and 2-[^18F]FDG PET/CT tumor uptake in patients
Procedure: (§1) All patients underwent [^68Ga]Ga-FAPI-RGD PET/CT and 2-[^18F]FDG PET scanning using a dedicated PET/CT scanner (Biograph mCT64, Siemens Healthcare).
(§2) [^68Ga]Ga-FAPI-RGD PET/CT The CT scans were performed with a tube voltage of 120 kV, an effective tube current of 70-120 mA (Care Dose 4D), and a slice thickness of 3 mm. Serial whole-body dynamic PET scans were immediately performed after the CT scan in 3D acquisition mode (matrix: 200 × 200). The whole body (from the top of skull to the middle of femur) of each patient was covered by 6 bed positions. The acquisition duration was 30 s/bed position at 3 min after injection; 1 min/bed position at 15 min after injection; and 2 min/bed position at 30, 60, and 120 min after injection.
(§3) 2-[^18F]FDG PET/CT All patients were fast at least 6 h to keep and images were obtained at 60-80 min after the intravenous injection of 2-[^18F]FDG (3.70 MBq [0.10 mCi]/kg). 2-[^18F]FDG was purchased from Fuzhou PET-Tracer Co. Ltd, and the radiochemical purity was more than 95%.
(§4) For [^68Ga]Ga-FAPI-RGD PET/CT, only PET/CT datasets acquired approximately 1 h after injection were used for analysis.

[2] = MicroPET imaging in Panc02 tumor-bearing mice; parameters: species or system C57BL/6 mice; settings: C57BL/6, mouse, in vivo, iv, 7.4 MBq, total radioactivity; for tissue uptake at 0.5 h: 0.5 h p.i.; for tissue uptake at 1 h: 1 h p.i.; for tissue uptake at 2 h: 2 h p.i.; for tissue uptake at 4 h: 4 h p.i.
Procedure: All animal studies were approved by the Animal Care and Use Committee of Xiamen University and carried out in compliance with the national laws related to the conduct of animal experiments. Panc02 tumor model was generated by subcutaneous injection of 5 × 10^6 tumor cells suspended in 100 μL PBS, into the upper limb flank of C57BL/6 mice (Beijing Vital River Laboratory Animal Technology Co., Ltd.). The tumor mice were subjected to microPET and biodistributions studies when the tumor volume reached 200-300 mm^3.
PET scans were performed by using Inveon small-animal PET scanner (Siemens Preclinical Solution). About 7.4 MBq of [^68Ga]Ga-FAPI-RGD was given to Panc02 tumor xenografted mice through tail vein injection for the 10-min static PET imaging. At 0.5, 1, 2 and 4 h post-injection (p.i.), mice were anaesthetized and placed on imaging chamber of PET/CT scanner for image acquisition. […] The blocking study was performed by injecting unlabeled c(RGDfK), FAPI-02, or RGDfK+FAPI-02, before administering [^68Ga]Ga-FAPI-RGD. PET images were reconstructed using three-dimensional ordered-subset expectation-maximization (3D OSEM) algorithm and with a Maximum a Posteriori (MAP) method and analyzed through drawing regions of interest (ROIs).

[3] = type: physicochemical
Procedure: Radiolabeling of ^68Ga was performed by incubation with 50 μg FAPI-RGD in NaOAc buffer solution (pH = 4.5) at 95 ℃ for 10 min. The product was purified by C18 column extraction. The radiochemical purity and stability of [^68Ga]Ga-FAPI-RGD were determined by radio-HPLC.
FAPI-RGD and its intermediate products were characterized by TOF-MS and HPLC (Figure S1-9). The radiolabeling yield and radiochemical purity of [^68Ga]Ga-FAPI-RGD were consistently over 99%. […] The radiochemistry purity was over 99% within 4 h.

[4] = in vivo; parameters: species or system C57BL/6 mice; settings: C57BL/6, mouse, iv, 740 kBq, total radioactivity
Procedure: All animal studies were approved by the Animal Care and Use Committee of Xiamen University and carried out in compliance with the national laws related to the conduct of animal experiments. […] Tissue and organs of interest were collected, wet weighted and activity measured by a γ-counter. […] The results were calculated as percentage of injected dose per gram (%ID/g).

[5] = clinical; settings: human, in vivo, total radioactivity
Procedure: (§5) This study was approved by the institutional review board of the First Affiliated Hospital, Fujian Medical University and registered at ClinicalTrials.gov (NCT05515783). All patients signed an informed consent form before participation and all procedures were conducted in accordance with the Declaration of Helsinki. The inclusion criteria were as follows: […] (2) primary malignancies confirmed by pathology. The exclusion criteria were patients: (1) who suffered from severe hepatic and renal insufficiency; (2) pregnant or lactational women.

[6] = test system: malignant tumors and normal organs; assay: clinical; settings: human, in vivo
Procedure: as §5

[7] = human, in vivo
Procedure: Organ delineation and activity accumulation at each imaging time point was determined using Hybrid-Dosimetry software (Hermes Medical Solutions, Sweden). Time-activity curve fitting and subsequent dose calculation was performed using OLINDA/EXM, version 2.2.0. Kidneys, liver, spleen, urinary bladder content, L2-L4 lumbar vertebrae for red marrow dosimetry, heart content, lung, brain, pancreas, thyroid, salivary glands and stomach contents were included as source organs. Red bone marrow dosimetry was done by image-based 3D volumetric analysis of L2-L4 vertebrae, which is considered to constitute 6.7% of the total bone marrow. The ROIs for the above organs were drawn from the examination that had the best organ delineation and then were copied onto all other time points to calculate the time-activity curves. The mono- or bi-exponential curve fitting parameters were applied to derive the best curve fit for the residence time of activity in the source organ. Once all the organ residence times were derived from the kinetic input model, they were entered in the adult female or male model data to derive the absorbed doses to all the organs, including the whole-body effective dose, and generated in mSv/MBq and rem/mCi. The time-activity graphs of various organs were generated using GraphPad Prism software.

[8] = clinical; settings: human, in vivo, total radioactivity; remark: listed apart in the source
Procedure: as §1, §2, §3, §4

[9] = test system: Panc02 tumor cells; assay: Cellular uptake assay on Panc02 tumor cells; type: cell-based; settings: 37 kBq, 37 °C, 10, 30, 60, 90 and 120 min, n = 4
Procedure: Panc02 cell line was purchased from the American Type Culture Collection (ATCC), and cultured in Dulbecco modified Eagle medium (DMEM) containing 10% (v/v) fetal bovine serum (FBS) at 37 °C with 5% CO2. Panc02 cells were seeded in 24-well plates with 2 × 10^5 cells per well. […] Then, the medium was removed and the cells were washed twice with cold PBS (pH 7.4) and subsequently lysed with 0.5 mL of NaOH (1 M). In the blocking studies, excess amount of unlabeled FAPI-RGD, FAPI-02, RGDfK, FAPI-02+RGDfK (10 μg/well) were added as inhibitors into the cells along with [^68Ga]Ga-FAPI-RGD. After 1 h, the cells were treated in the same way. Cell lysates was collected and the radioactivity was determined using a γ counter.

[10] = i.v. tail vein, n = 3, ROI, mean ± SD
[11] = average SUVmean of thyroid glands

mean SUVmax in primary tumors ([1]; 6 patients, FAPI-RGD approximately 1 h after injection, FDG 60-80 min after injection, mean ± SD, p = 0.459): 10.3 ± 6.9 | SUVmax of primary lesion, patient with renal cell carcinoma ([1]; single patient, intra-individual comparison): 2.7 | SUVmax of metastasis ([1]; three patients with metastatic foci, mean ± SD, p = 0.373): 7.6 ± 5.3
Structure (SMILES): OC[C@H]1O[C@@H](O)[C@H]([18F])[C@@H](O)[C@@H]1O [2-[^18F]FDG, reference compound]

Structure (SMILES): N#C[C@@H]1CCCN1C(=O)CNC(=O)c1ccnc2ccc(OCCCN3CCN(C(=O)CCOCCOCCNC(=O)[C@H](CCC(=O)NCCOCCOCCC(=O)NCCCC[C@@H]4NC(=O)[C@@H](Cc5ccccc5)NC(=O)[C@H](CC(=O)O)NC(=O)CNC(=O)[C@H](CCCNC(=N)N)NC4=O)NC(=O)CN4CCN(CC(=O)O)CCN(CC(=O)O)CC4)CC3)cc12 [[^68Ga]Ga-FAPI-RGD, metal not drawn]
tissue uptake at 0.5 h [2, 10]: 5.25 ± 0.54 %ID/g | tissue uptake at 1 h [2, 10]: 5.13 ± 0.65 %ID/g | tissue uptake at 2 h [2, 10]: 5.33 ± 0.27 %ID/g | tissue uptake at 4 h ([2]; i.v. tail vein, n = 3, ROI, mean ± SD, read-out: tumor uptake (microPET)): 5.04 ± 0.16 %ID/g | tissue uptake at 4 h ([2]; n = 3, read-out: blood uptake (microPET)): 1.4 ± 0.08 %ID/g | tissue uptake at 4 h ([2]; n = 3, read-out: kidney uptake (microPET)): 2.78 ± 0.46 %ID/g | tissue uptake at 4 h ([2]; n = 3, read-out: liver uptake (microPET)): 1.83 ± 0.39 %ID/g | time of good stability in saline [3]: at least 4 h | tissue uptake at 0.5 h [4]: 6.16 ± 0.46 %ID/g | tissue uptake at 1 h [4]: 5.95 ± 0.43 %ID/g | tissue uptake at 2 h [4]: 5.78 ± 0.28 %ID/g | tissue uptake at 4 h [4]: 5.79 ± 0.22 %ID/g | SUV at 0.05 h [5, 11]: 7.8 SUV | SUV at 2 h [5, 11]: 3 SUV | SUV at 0.05 h ([5]; average tumor SUVmax): 7 SUV | SUV at 0.25 h ([5]; average tumor SUVmax): 8 SUV | SUV at 0.5 h ([5]; average tumor SUVmax): 8 SUV | SUV at 1 h ([5]; average tumor SUVmax): 8.3 SUV | SUV at 2 h ([5]; average tumor SUVmax): 9.1 SUV | decline of thyroid SUVmean from 3 min to 2.0 h [6]: 62.5% | main excretory organs [6]: kidneys were the main excretory organs | effective dose [7]: 1.94 mSv/100 MBq | total body effective dose for administration of 185 MBq (5.0 mCi) [7]: 3.6 mSv | Estimated absorbed dose, Adrenals ([7]; iv): 1.04E-02 mSv/MBq | Estimated absorbed dose, Brain ([7]; iv): 3.38E-03 mSv/MBq | Estimated absorbed dose, Esophagus ([7]; iv): 7.55E-03 mSv/MBq | Estimated absorbed dose, Eyes ([7]; iv): 5.47E-03 mSv/MBq | Estimated absorbed dose, Gallbladder Wall ([7]; iv): 8.35E-03 mSv/MBq | Estimated absorbed dose, Heart Wall ([7]; iv): 2.04E-02 mSv/MBq | Estimated absorbed dose, Kidneys ([7]; iv): 3.24E-02 mSv/MBq | Estimated absorbed dose, Left colon ([7]; iv): 7.80E-03 mSv/MBq | Estimated absorbed dose, Liver ([7]; iv): 1.45E-02 mSv/MBq | Estimated absorbed dose, Lungs ([7]; iv): 2.33E-02 mSv/MBq | Estimated absorbed dose, Osteogenic Cells ([7]; iv): 1.07E-02 mSv/MBq | Estimated absorbed dose, Pancreas ([7]; iv): 3.06E-02 mSv/MBq | Estimated absorbed dose, Prostate ([7]; iv): 1.24E-02 mSv/MBq | Estimated absorbed dose, Rectum ([7]; iv): 1.06E-02 mSv/MBq | Estimated absorbed dose, Red Marrow ([7]; iv): 1.45E-02 mSv/MBq | Estimated absorbed dose, Right colon ([7]; iv): 7.53E-03 mSv/MBq | Estimated absorbed dose, Salivary Glands ([7]; iv): 2.09E-02 mSv/MBq | Estimated absorbed dose, Small Intestine ([7]; iv): 8.16E-03 mSv/MBq | Estimated absorbed dose, Spleen ([7]; iv): 2.25E-02 mSv/MBq | Estimated absorbed dose, Stomach Wall ([7]; iv): 1.20E-02 mSv/MBq | Estimated absorbed dose, Testes ([7]; iv): 7.13E-03 mSv/MBq | Estimated absorbed dose, Thymus ([7]; iv): 7.41E-03 mSv/MBq | Estimated absorbed dose, Thyroid ([7]; iv): 3.31E-02 mSv/MBq | Estimated absorbed dose, Total Body ([7]; iv): 8.92E-03 mSv/MBq | Estimated absorbed dose, Urinary Bladder Wall ([7]; iv): 2.26E-01 mSv/MBq | effective dose ([7]; iv): 1.94E-02 mSv/MBq | SUV at 1 h ([8]; SUVmax of metastasis): 6.5 ± 2.6 SUV | SUV at 1 h ([8]; SUVmax of primary lesion, patient with renal cell carcinoma): 5.1 SUV | SUV at 1 h ([8]; mean SUVmax in primary tumors): 8.9 ± 3.2 SUV

Structure (SMILES): N=C(N)NCCC[C@@H]1NC(=O)[C@H](CCCCNC(=O)CN2CCN(CC(=O)O)CCN(CC(=O)O)CC2)NC(=O)[C@@H](Cc2ccccc2)NC(=O)[C@H](CC(=O)O)NC(=O)CNC1=O [[^68Ga]Ga-RGDfK, metal not drawn, reference compound]
tissue uptake at 0.5 h [2, 10]: 3.96 ± 0.24 %ID/g | tissue uptake at 1 h [2, 10]: 3.4 ± 0.16 %ID/g | tissue uptake at 2 h [2, 10]: 2.89 ± 0.09 %ID/g | cellular uptake compared with [^68Ga]Ga-FAPI-RGD [9]: less than [^68Ga]Ga-FAPI-RGD at all the time points | tissue uptake at 1 h [4]: 3.51 ± 0.47 %ID/g

Reference: publication PMC9576616, “Synthesis, preclinical evaluation and radiation dosimetry of a dual targeting PET tracer [^68Ga]Ga-FAPI-RGD” (Theranostics, 2022)
